Results: the DeepSol protein solubility set

Assay: soluble on expression in E. coli; label from the status in PepcDB or PDB records

| Sequence | soluble on expression in E. coli |
| --- | --- |
| MNDHIHRVPALTEEEIDSVAIKTFERYALPSSSSVKRKGKGVTILWFRNDLRVLDNDALYKAWSSSDTILPVYCLDPRLFHTTHFFNFPKTGALRGGFLMECLVDLRKNLMKRGLNLLIRSGKPEEILPSLAKDFGARTVFAHKETCSEEVDVERLVNQGLKRVGNSTKLELIWGSTMYHKDDLPFDVFDLPDVYTQFRKSVEAKCSIRSSTRIPLSLGPTPSVDDWGDVPTLEKLGVEPQEVTRGMRFVGGESAGVGRVFEYFWKKDLLKVYKETRNGMLGPDYSTKFSPWLAFGCISPRFIYEEVQRYEKERVANNSTYWVLFELIWRDYFRFLSIKCGNSLFHLGGPRNVQGKWSQDQKLFESWRDAKTGYPLIDANMKELSTTGFMSNRGRQIVCSFLVRDMGLDWRMGAEWFETCLLDYDPCSNYGNWTYGAGVGNDPREDRYFSIPKQAQNYDPEGEYVAFWLQQLRRLPKEKRHWPGRLMYMDTVVPLKHGNGPMAGGSKSGGGFRGSHSGRRSRHNGP | soluble |
| MSLKIKVYLYTRVSTSIQIEGYSLEAQKSRMKAFAIYNDYEIVGEYEDAGKSGKSIEGRIQFNRMMEDIKSGKDGVSFVLVFKLSRFARNAADVLSTLHIMQDYGVNLICVEDGIDSSKDAGKLMISVLSAVAEIERENIRIQTMEGRIQKAREGKWNGGFAPYGYKLEDGKLFINEEEAVAIRTIFDQYVNTTIGANGISKYLENHGIRKIPRQNGKNPLFDAGLIRKILKNPVYNGKIAFGRRTLEKVHGTRNEYKQVEQDEYLISEGIHEAIVSDEVWQAAQVKLKSQAKKYEHVNKGKDTRTHLLSGIVKCPICGVGMFGNKCIKKKKDGTKYKDFYYYGCNHRQMIRGHKCTFSKQIREELLDDAVAEVIVKIVSNPKFASMMQEKINMKVDTSEIEKEIDNYQKELRKSHSTKFKLIEEIDNLDVEDKHYKRRKQDLDDRLYRMYDKIDELESSLIDAKAKKQTIEAEKLTGDNIYKVLIYFDKLYKVMNDVERRQLISALISEIQVYEEKQSNGQWLKSITFKLPIIEENLNIDLDNDEQVECVSLLEKRSEGHHHHHH | soluble |
| MGDPKAFLNIPRQEAGYRPVSERITDYSQVEQTLNTNSRKLQASRCMDCGVPFCHWACPIGNKQPEWQDALFKGKWKEAYEVLSSTCDFPEFTGRICPALCEKSCVLKLSCDQPVTIRENEAAIVEAAFREGYIQVQHPQRNGKKVAVVGAGPAGLVVANQLNLKGYTVTLFDKDEAAGGLLRFGIPNFKLDKNVIDRRMKILAAEGIQFEMGVEIDVNHLPEGFDAYCICTGTPTARDLSIPGRELKGIHFALEMLAQQNRILEGQTFPKDKLVNAKGKKVLVIGGGDTGSDCIGTSVRQGATSVTQIEIMPKPPVGHNPSTPWPQWPVVFKTTSSHEEGCTRRWCLTSNQFLGKNGKVTGVEVEEVEWTPATDGGRPTMNLTGKKEVIEADMVLLAMGFLKPEQPKFAENVFLAGDAATGASLVVRAMAGGRKAAADIDHYLVKLEHHHHHH | soluble |
| MSLTHEEAVAIHKEKMEALEMQMKLILVLDLDQTVLHTTYGTSSLEGTVKFVIDRCRYCVKLRPNLDYMLRRISKLYEIHVYTMGTRAYAERIVEIIDPSGKYFDDRIITRDENQGVLVKRLSRLFPHDHRNIVILDDRPDVWDYCENLVLIRPFWYFNRVDINDPLRLKRKIEKEAGENKALEEGHHHHHH | not soluble |
| GDSLTAQEALATLALSGDDDGPRQTRSYQVMNGIAVLPVSGTLVSRTRALQPYSGMTGYNGIIARLQQAASDPMVDGILLDMDTPGGMVAGAFDCADIIARVRDIKPVWALANDMNCSAGQLLASAASRRLVTQTARTGSIGVMMAHSNYGAALEKQGVEITLIYSGSHKVDGNPYSHLPDDVRETLQSRMDATRQMFAQKVSAYTGLSVQAVLDTEAAVYSGQEAIDAGLAD | not soluble |
| MGIFETMSQVRRLPQALAAAVATPPALAGSGTLRGLIGLDDSLGEAVTTRAEALTIPAVLRARNLLSTTVARTPLVCDGTLPPFVPVAAPPGAATMQTPFHRMLATADDLLFNGVACWALDRDESGTCIGAIHIPLDTWQIEENTVRVNGKAVDPMEVCIFVGIHGGLLTHASETFTDARNLVRAAARVAQNPAALIELRQTNNAQLSPDDVDRIINGYVAARRGRNSGVGFSSSGLEVHEHEMAKENLLIEGRNAAAVDVARAMNVPAAFIDATVGGTSLSYQNAASRMIELVTFGVEPLMSAIEARLNQPDMHADHLANPLKFDPAALLDAIPTTPTIGAQPHGENS | not soluble |
| MAVRVAINGFGRIGRNILRAIVESGRTDIQVVAINDLGPVETNAHLLRYDSVHGRFPKEVEVAGDTIDVGYGPIKVHAVRNPAELPWKEENVDIALECTGIFTSRDKAALHLEAGAKRVIVSAPADGADLTVVYGVNNDKLTKDHLVISNASCTTNCLAPVAQVLNDTIGIEKGFMTTIHSYTGDQPTLDTMHKDLYRARAAALSMIPTSTGAAKAVGLVLPELKGKLDGVAIRVPTPNVSVVDLTFIAKRETTVEEVNNAIREAANGRLKGILGYTDEKLVSHDFNHDSHSSVFHTDQTKVMDGTMVRILSWYDNEWGFSSRMSDTAVALGKLI | soluble |
| MPPFYKRLHRKKDGRELFLYGLMPLEGPPLPEDAEPFRPAPHLRYHPLRGEWVVYAAHRQGRTFLPPKEHCPLCPSREGGFPTEIPFPSFQVAVFENRFPSFVEEAPPPPEGLPVPAGRALGRCEVVVYTPAHTGSLATLTEEERLLLAWAWRDRYEALYALPGVRFVMPFENRGEAVGVTLHHPHGQIYAYPFVPPVLERESQAFRERPVLLRLFPSLGPYVVDEEEGFLAFVPPFARYPFEVWVAPVERHPGPWTFSEGEMAAFARLLGRVVARYDALFGEPFPYVMVFHAAPLGEEATFHFHVEFYPPRRTRDKLKFLAGTELGAGTFVVDALPEETAKALRAALP | soluble |
| MDVIRSSASDILGALRSRQLSSEAVMEATLARIAAVNPELNAIVALRPTDELLAEARAADAVAPEARGALHGLPIAVKDLVETAGIVSSHGSPLFRDHVPERDDLIAARIRAAGAILIGKTNVPEFGLGSHTFNPVYGATGNPYAPNLTCGGSSGGAAVALATGMTALADGSDMMGSLRNPAAWCNVYGFRPSWGRVPSEPLGDTFLHQLATLGPMGRSPADIAILLDVISGADPRQPHGFDSAPVAPLRPAATRGLRLGWLGDWGGAFPTEPGILPLCETALKIFSDLGCTVEKVPPPFDAEALWESWITLRSWSVGAGLAPLSEKRAQLKDSAQWELDRGLALSAMEVDRASVTRSAWFMRATELFESYDALILPSAQVWPFDLDRPYPTEIAGQAMDTYHRWMQVVTPVSLIGLPSLAMPAGFGDAGLPMGVQIFGPRGGDAALLALGEAYHAATTWPQRHP | not soluble |
| MGSDKIHHHHHHMPEAAFTHERRCSSLCAFVSSSQSPTTNAETIREARSSRCDKTSMTPSFKELKSRFGLDEINTTDAYIIEALIIMAAISLMMSRVIVDELRSLEARQREVEAAADADESASRLPRRRCSLAVERHAHLIQLYLMVELGYELPDLDELLLWASRNPNPHRDRLREQVERGEFGFGRH | not soluble |
| MVALQIPSLAATVRQDFPILNQEINGHPLVYLDNAATSQKPRAVLEKLMHYYENDNANVHRGAHQLSVRATDAYEAVRNKVAKFINARSPREIVYTRNATEAINLVAYSWGMNNLKAGDEIITTVMEHHSNLVPWQMVAAKTGAVLKFVQLDEQESFDLEHFKTLLSEKTKLVTVVHISNTLGCVNPAEEIAQLAHQAGAKVLVDACQSAPHYPLDVQLIDCDWLVASGHKMCAPTGIGFLYGKEEILEAMPPFFGGGEMIAEVFFDHFTTGELPHKFEAGTPAIAEAIALGAAVDYLTDLGMENIHNYEVELTHYLWQGLGQIPQLRLYGPNPKHGDRAALASFNVAGLHASDVATMVDQDGIAIRSGHHCTQPLHRLFDASGSARASLYFYNTKEEIDLFLQSLQATIRFFSDDDFTV | soluble |
| MLDPFSEKAKELLKEFGSMNEFLQAIPSLVDIEEVMNRLKFAKESEISEDILNIEDIRDLASFYAQIGALAYSPYGLELELVKKANLRIYTERIRRRRKIRSDEIGIEVKIAVEFPENDIKTLEKVYGGLPEYIVSLREFLDLVPDEKLSSYYVYDGNVYLRKDDLLKVWSKAFERNVEKAVNIIYEIRDELPEFYRRLAGEIRSFAEKEFSDKFREVQAGELKHHLFPPCVKNALRGVPQGMRNYAITVLLTSFLSYARICPNPPRRNVKIRDCIKDMRVITEEILPIIIEAGNRCSPPLFEDQPNEIKNIWYHLGFGYTANPTLEDSGNSTWYFPPNCDKIKANAPQLCTPDKHCRYIRNPLTYYLRRLYLEEKRRAKHADEGSDKGGKERILQLEHHHHHH | not soluble |
